How the values were obtained:
[1] = biological target: T1, EcoRV endonuclease (wild type) (UniProt P04390 2-245); assay: NMR
[2] = biological target: T1, EcoRV endonuclease (wild type); assay: NMR; remark: listed apart in the source
[3] = biological target: T1, EcoRV endonuclease (wild type); assay: X-ray crystallography
[4] = biological target: T1, EcoRV endonuclease (wild type); assay: X-ray crystallography; remark: listed apart in the source
[5] = biological target: T1, EcoRV endonuclease (wild type); assay: NMR; remark: listed apart in the source

T1 sequence (P04390 2-245): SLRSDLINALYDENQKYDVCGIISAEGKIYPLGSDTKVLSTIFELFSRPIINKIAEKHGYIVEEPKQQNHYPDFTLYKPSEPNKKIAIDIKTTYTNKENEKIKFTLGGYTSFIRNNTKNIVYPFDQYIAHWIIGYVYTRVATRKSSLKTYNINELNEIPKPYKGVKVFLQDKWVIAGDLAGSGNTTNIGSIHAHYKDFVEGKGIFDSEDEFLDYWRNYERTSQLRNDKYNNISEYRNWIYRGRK

B1: cognate 16 bp GATATC (dsDNA)
DNA 1: GCAAAGATATCTTTCG
DNA 2: CGAAAGATATCTTTGC
B1: binds [1].

B2: nonspecific 16 bp inverted site CTATAG (dsDNA)
DNA 1: GCAAACTATAGTTTCG
DNA 2: CGAAACTATAGTTTGC
B2: binds [2].

B3: cognate 12 bp crystal duplex (dsDNA)
DNA 1: AAAGATATCTTT
DNA 2: AAAGATATCTTT
B3: binds [3].

B4: cleaved 12 bp crystal duplex (dsDNA)
DNA 1: AAAGAT
DNA 2: ATCTTT
B4: binds [4].

B5: cleaved 24 bp duplex products (dsDNA)
DNA 1: CGCTGGAAAGAT
DNA 2: ATCTTTCCAGCG
DNA 3: ATCTTTGGAGGC
DNA 4: GCCTCCAAAGAT
B5: binds [5].

Source: publication PMC5402698
